{
  "source": "patent US20250282880A1",
  "about": "(NUMAB THERAPEUTICS, published 2025)",
  "binders": {"B1": {"name": "dupilumab (antibody, V domains shown)", "VH": "EVQLVESGGGLEQPGGSLRLSCAGSGFTFRDYAMTWVRQAPGKGLEWVSSISGSGGNTYYADSVKGRFTISRDNSKNTLYLQMNSLRAEDTAVYYCAKDRLSITIRPRYYGLDVWGQGTTVTVSS", "VL": "DIVMTQSPLSLPVTPGEPASISCRSSQSLLYSIGYNYLDWYLQKSGQSPQLLIYLGSNRASGVPDRFSGSGSGTDFTLKISRVEAEDVGFYYCMQALQTPYTFGQGTKLEIKR"}},
  "key": {"IL-4R on HEK-Blue cells": {"molecular_target": "IL-4R on HEK-Blue cells (human, UniProt P24394 26-825)", "experiment": "cell-based or functional assay"}, "Biotinylated IL-4R [1]": {"molecular_target": "T1, Biotinylated IL-4R (human, UniProt P24394 26-232, limits assumed, biotinylated)", "T1 construct": "also called human IL-4R; hIL-4R", "experiment": "competitive ELISA: human IL-4 coated on the plate, biotinylated IL-4R preincubated with the antagonist, bound IL-4R detected with streptavidin-HRP; blocked ligand human IL-4"}, "Biotinylated IL-4R [2]": {"molecular_target": "T1, Biotinylated IL-4R", "experiment": "competitive ELISA: human IL-4 coated on the plate, biotinylated IL-4R preincubated with the antagonist, bound IL-4R detected with streptavidin-HRP; blocked ligand human IL-4", "remark": "listed apart in the source"}, "Biotinylated IL-4R [3]": {"molecular_target": "T1, Biotinylated IL-4R", "experiment": "competitive ELISA: human IL-4 coated on the plate, biotinylated IL-4R preincubated with the antagonist, bound IL-4R detected with streptavidin-HRP; blocked ligand human IL-4", "remark": "listed apart in the source"}, "Biotinylated IL-4R [4]": {"molecular_target": "T1, Biotinylated IL-4R", "experiment": "competitive ELISA: human IL-4 coated on the plate, biotinylated IL-4R preincubated with the antagonist, bound IL-4R detected with streptavidin-HRP; blocked ligand human IL-4 [continued) E]"}, "Biotinylated IL-4R [5]": {"molecular_target": "T1, Biotinylated IL-4R", "experiment": "competitive ELISA: human IL-4 coated on the plate, biotinylated IL-4R preincubated with the antagonist, bound IL-4R detected with streptavidin-HRP; blocked ligand human IL-4", "remark": "listed apart in the source"}, "Biotinylated IL-4R [6]": {"molecular_target": "T1, Biotinylated IL-4R", "experiment": "competitive ELISA: IL-4 coated, biotinylated IL-4R preincubated with antibody (plate of PRO1899)"}, "Biotinylated IL-4R [7]": {"molecular_target": "T1, Biotinylated IL-4R", "experiment": "competitive ELISA: IL-4 coated, biotinylated IL-4R preincubated with antibody (plate of PRO1898)"}},
  "data": [
    {"binder": "B1", "values": [
      {"measurement": "IC50, neutralization of hIL-4 induced signaling in reporter gene assay", "setting": "IL-4R on HEK-Blue cells", "result": 1.15, "unit": "ng/mL"},
      {"measurement": "IC50, neutralization of hIL-13 induced signaling in reporter gene assay", "setting": "IL-4R on HEK-Blue cells", "result": 1, "unit": "ng/mL"},
      {"measurement": "rel. IC50 (IC50, dupilumab/IC50, test sample), hIL-4 induced signaling", "setting": "IL-4R on HEK-Blue cells", "result": 1, "unit": "ratio"},
      {"measurement": "rel. IC50 (IC50, dupilumab/IC50, test sample), hIL-13 induced signaling", "setting": "IL-4R on HEK-Blue cells", "result": 1, "unit": "ratio"},
      {"measurement": "IC50 (read off the curve)", "setting": "Biotinylated IL-4R [1]", "result": "~2", "unit": "ng/mL"},
      {"measurement": "IC50 (read off the curve)", "setting": "Biotinylated IL-4R [2]", "result": "~2", "unit": "ng/mL"},
      {"measurement": "IC50 (read off the curve)", "setting": "Biotinylated IL-4R [3]", "result": "~3", "unit": "ng/mL"},
      {"measurement": "IC50 (read off the curve)", "setting": "Biotinylated IL-4R [4]", "result": "~2", "unit": "ng/mL"},
      {"measurement": "IC50 (read off the curve)", "setting": "Biotinylated IL-4R [5]", "result": "~2", "unit": "ng/mL"},
      {"measurement": "IC50", "setting": "Biotinylated IL-4R [6]", "result": 6.18, "unit": "ng/mL"},
      {"measurement": "rel. IC50 (IC50, dupilumab/IC50, test sample)", "setting": "Biotinylated IL-4R [6]", "result": 1, "unit": "ratio"},
      {"measurement": "IC50", "setting": "Biotinylated IL-4R [7]", "result": 6.78, "unit": "ng/mL"},
      {"measurement": "rel. IC50 (IC50, dupilumab/IC50, test sample)", "setting": "Biotinylated IL-4R [7]", "result": 1, "unit": "ratio"}
    ]}
  ]
}
